The RNAGym collection of RNA variant scans (doi:10.1073/pnas.2313332121)

B1: TPR t1 (parent)
chain: GACCAAUCUGCCCUCAGAGCUCGAGAACAUCUUCGGAUGCAGAGGAGGCAGGCUUCGGUGGCGCGAUAGCGCCAACGUCCUCAACCUCCAAUGCAUCCCACCACAUGAUGAUGCCUGAAGAGCCUUGGUUUUUUG

Variants of: B1
Assay: polymerase ribozyme fitness, log enrichment relative to wild type (log ratio); higher = more active; in vitro selection for triplet polymerase activity
In short: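 Fitness measures genotype enrichment against wild-type enrichment on a logarithmic scale, with inverse-variance-weighted averaging of replicates. The logarithm is base 2, and genotypes were kept only with ≥10 input reads and ≥1 read per output in Illumina sequencing. The sequenced libraries came from one triplicate in vitro selection round, including frozen incubation at −7 °C, of PCR-built, transcribed mutant libraries of each subunit of a heterodimeric triplet polymerase ribozyme.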

Compared with GACCAAUCUGCCCUCAGAGCUCGAGAACAUCUUCGGAUGCAGAGGAGGCAGGCUUCGGUGGCGCGAUAGCGCCAACGUCCUCAAUCUCCAAUGCAUCCCACCACAUGAUGAUGCCUGAAGAGCCUUGGUAUUUUG [C85U U130A], GACCAAUCUGCCCUCAGAGCUCGAGAACAUCUUCGGAUGCAGAGGAGGCAGGCUUCGGUGGCGCGAUAGCGCCAACGUCCUCAAUCUCCAAUGCAUCCCACCACAUGAUGAUGCCUGAAGAGCCUUGGUUUUAUG [C85U U133A] is higher in “polymerase ribozyme fitness (log ratio)” value: -1.86 for the first, -0.839 for the second.

Compared with GACCAAUCUGCCCUCAGAGCUCGAGAACAUCUUCGGAUGCAGAGGAGGCAGGCUUCGGUGGCGCGAUAGCGCCAACGUCCUCAACAUCCAAUGCGUCCCACCACAUGAUGAUGCCUGAAGAGCCUUGGUUUUUUG [C86A A95G], GACCAAUCUGCCCUCAGAGCUCGAGAACAUCUUCGGAUGCAGAGGAGGCAGGCUUCGGUGGCGCGAUAGCGCCAACGUCCUCAACAUCCAAUGCAUCCCACCACAUGAUGCUGCCUGAAGAGCCUUGGUUUUUUG [C86A A111C] is higher in “polymerase ribozyme fitness (log ratio)” value: -0.915 for the first, 0.315 for the second.

Compared with GACCAAUCUGCCCUCAGAGCUCGAGAACAUCUUCGGAUGCAGAGGAGGCAGGCUUCGGUGGCGCGAUAGCGCCAACGUCCUCAACAUCCAAUGCAUCUCACCACAUGAUGAUGCCUGAAGAGCCUUGGUUUUUUG [C86A C98U], GACCAAUCUGCCCUCAGAGCUCGAGAACAUCUUCGGAUGCAGAGGAGGCAGGCUUCGGUGGCGCGAUAGCGCCAACGUCCUCAACAUCCAAUGCAUCCCAUCACAUGAUGAUGCCUGAAGAGCCUUGGUUUUUUG [C86A C101U] is higher in “polymerase ribozyme fitness (log ratio)” value: -0.468 for the first, -0.0895 for the second.

Going from GACCAAUCUGCCCUCAGAGCUCGAGAACAUCUUCGGAUGCAGAGGAGGCAGGCUUCGGUGGCGCGAUAGCGCCAACGUCCUCAACAUCCAAUGCACCCCACCACAUGAUGAUGCCUGAAGAGCCUUGGUUUUUUG [C86A U96C] to GACCAAUCUGCCCUCAGAGCUCGAGAACAUCUUCGGAUGCAGAGGAGGCAGGCUUCGGUGGCGCGAUAGCGCCAACGUCCUCAACAUCCAAUGCAUCCCACCACAUGAUGAAGCCUGAAGAGCCUUGGUUUUUUG [C86A U112A], the “polymerase ribozyme fitness (log ratio)” value rises from -0.678 to 0.808.

First: GACCAAUCUGCCCUCAGAGCUCGAGAACAUCUUCGGAUGCAGAGGAGGCAGGCUUCGGUGGCGCGAUAGCGCCAACGUCCUCAACAUCCAAUGCAUCCCACCACAUGAUGAUGCCGGAAGAGCCUUGGUUUUUUG [C86A U116G]
Second: GACCAAUCUGCCCUCAGAGCUCGAGAACAUCUUCGGAUGCAGAGGAGGCAGGCUUCGGUGGCGCGAUAGCGCCAACGUCCUCAACAUCCAAUGCAUCCCACCACAUGAUGAUGCCUGAAGAGCCUUGGUUUCAUG [C86A U132C U133A]
The “polymerase ribozyme fitness (log ratio)” value of the first is lower: -2.89 for the first, -1.36 for the second.

Compared with GACCAAUCUGCCCUCAGAGCUCGAGAACAUCUUCGGAUGCAGAGGAGGCAGGCUUCGGUGGCGCGAUAGCGCCAACGUCCUCAACGUCCAGUGCAUCCCACCACAUGAUGAUGCCUGAAGAGCCUUGGUUUUUUG [C86G A91G], GACCAAUCUGCCCUCAGAGCUCGAGAACAUCUUCGGAUGCAGAGGAGGCAGGCUUCGGUGGCGCGAUAGCGCCAACGUCCUCAACGUCCAAUGCAUCCCACCACAUGAUGGUGCCUGAAGAGCCUUGGUUUUUUA [C86G A111G G135A] is higher in “polymerase ribozyme fitness (log ratio)” value: -1.96 for the first, -0.134 for the second.

Going from GACCAAUCUGCCCUCAGAGCUCGAGAACAUCUUCGGAUGCAGAGGAGGCAGGCUUCGGUGGCGCGAUAGCGCCAACGUCCUCAACGUUCAAUGCAUCCCACCACGUGAUGAUGCCUGAAGAGCCUUGGUUUUUUG [C86G C88U A105G] to GACCAAUCUGCCCUCAGAGCUCGAGAACAUCUUCGGAUGCAGAGGAGGCAGGCUUCGGUGGCGCGAUAGCGCCAACGUCCUCAACGUCCAAUACAUCCCACCACAUGAUGAUCCCUGAAGAGCCUUGGUUUUUUG [C86G G93A G113C], the “polymerase ribozyme fitness (log ratio)” value rises from -4.95 to -4.01.

Compared with GACCAAUCUGCCCUCAGAGCUCGAGAACAUCUUCGGAUGCAGAGGAGGCAGGCUUCGGUGGCGCGAUAGCGCCAACGUCCUCAACGUCCAAUGCAUCCCACCACAUGAUGAUGCCUGAAGAGCCUUGAUUUUUUG [C86G G128A], GACCAAUCUGCCCUCAGAGCUCGAGAACAUCUUCGGAUGCAGAGGAGGCAGGCUUCGGUGGCGCGAUAGCGCCAACGUCCUCAACGUCCAAUGCAUCCCACCACAUGAUGAAGCCUUAAAAGCCUAGGUUUUUUG [C86G U112A G117U G120A U126A] is lower in “polymerase ribozyme fitness (log ratio)” value: -2.15 for the first, -5.82 for the second.

First: GACCAAUCUGCCCUCAGAGCUCGAGAACAUCUUCGGAUGCAGAGGAGGCAGGCUUCGGUGGCGCGAUAGCGCCAACGUCCUCAACUUCCAGUGCAUCUCACCACAUGAUGAUGCCUGAAGAGCCUUGGUUUUUUG [C86U A91G C98U]
Second: GACCAAUCUGCCCUCAGAGCUCGAGAACAUCUUCGGAUGCAGAGGAGGCAGGCUUCGGUGGCGCGAUAGCGCCAACGUCCUCAACUUCCAAUGCAUCCCUCCACAUGAUAAUGCCUGAAGAGCCUUGGGUUUUUG [C86U A100U G110A U129G]
The “polymerase ribozyme fitness (log ratio)” value of the first is higher: -2.63 for the first, -3.54 for the second.

Going from GACCAAUCUGCCCUCAGAGCUCGAGAACAUCUUCGGAUGCAGAGGAGGCAGGCUUCGGUGGCGCGAUAGCGCCAACGUCCUCAACUUCCAAUGCAUCCCACCACAUGAUGGUGCCUGAAGAGACUUAGUUUUUUG [C86U A111G C123A G127A] to GACCAAUCUGCCCUCAGAGCUCGAGAACAUCUUCGGAUGCAGAGGAGGCAGGCUUCGGUGGCGCGAUAGCGCCAACGUCCUCAACUUCCAAUGCAUCCCACAACAUGAUGAAGACUGAAGAGCCUUGGUUUUUUG [C86U C102A U112A C114A], the “polymerase ribozyme fitness (log ratio)” value falls from -2.33 to -4.14.

With GACCAAUCUGCCCUCAGAGCUCGAGAACAUCUUCGGAUGCAGAGGAGGCAGGCUUCGGUGGCGCGAUAGCGCCAACGUCCUCAACUUCCAAUGCAUCCCACCACAUGAUGAUGCCUGAAGAGCAUUGGUUUUUUG [C86U C124A] the “polymerase ribozyme fitness (log ratio)” value was 1.32.
